Measurements published in patent US20240407381A1, “FOOD COMPOSITIONS COMPRISING RECOMBINANT CELLS COMPRISING TRANSCOBALAMIN” (IMAGINDAIRY LTD., priority 2021, published 2024).

Test: biochemical tests of B12 binding
Conditions: purified recombinant transcobalamin expressed in A. oryzae
Description: The entire process was scalable to produce the protein in large batches. Afterwards, the inventors feedbacked the expression information (RNAseq) to the machine learning to create better constructs until reaching optimal transcobalamin expression.

B12 binding: effective B12 binding
B1: transcobalamin: recombinant bovine transcobalamin secreted from A. oryzae and purified from the harvested medium; TC2 expression confirmed (protein, UniProt Q9XSC9 19-432, looked up)
Transcobalamin-2: NICEITEVDSTLVERLGQRLLPWMDRLSQEQLNPSIYVGLRLSSLQAGAKEAHYLHSLKLSYQQSLLRPASNKDDNDSEAKPSMGQLALYLLALRANCEFIGGRKGDRLVSQLKRFLEDEKRAIGHNHQGHPRTSYYQYSLGILALCVHQKRVHDSVVGKLLYAVEHKPHLLQDHVSVDTMAMAGMAFSCLELSNLNPKQRNRINLALKRVQEKILKAQTPEGYFGNVYSTPLALQLLMGSLRPSVELGTACLKAKAALQASLQHKTFQNPLMISQLLPVLNQKSYVDLISPDCQAPRALLEPALETPPQAKVPKFIDVLLKVSGISPSYRHSVSVPAGSSLEDILKNAQEHGRFRFRTQASLSGPFLTSVLGRKAGEREFWQVLRDPDTPLQQGIADYRPKDGETIELRLVGW
